Tests used:
[1] = target: T1, EGFR on EGFR-overexpressing tumor cell line A431 (Homo sapiens, A431 cells, UniProt P00533); test: cell-based or functional assay
[2] = target: T1, EGFR on EGFR-overexpressing tumor cell …; test: flow cytometry on cells; EGFR-positive A431 cells incubated 1 h on ice with antibody derivatives 0.05 nM to 1 µM, detected with Alexa Fluor 488 Fab goat antihuman IgG (H+L); apparent binding affinities; settings: one partner purified

Row | Binder | EC50 [2] [nM] | ADCC EC50 killing: NK cell-mediated lysis of EGFR-overexpressing A431 cells, E:T 5:1 [1] [nM] | ADCC mean max killing of A431 cells (normalized to Cetuximab) [1] [%]
1 | 60E11 IgG (antibody, synthetic bovine IGHV1-7 (VHBUL) scaffold, FR1 to FR3; ultralong CDR-H3 (stalk and knob) of clone 60E11 from immunised cattle; FR4 of the synthetic VH domain; human IgG1 heavy chain constant regions; as the light chain of m3: bovine VL (V30, VLλ30) deduced from PDB entries that share a CDR-identical light chain; human constant lambda region (CLλ); chimeric IgG1; also called chimeric bovine × …) VH: QVQLRESGPSLVKPSQTLSLTCTASGFSLSDKAVGWVRQAPGKALEWLGGIDTGGSTGYNPGLKSRLSITKDNSKSQVSLSVSSVTTEDSATYYCTTVHQRTRKTCPDGWRDGSDCPYGHRCGDYDCCGYGCYDGRGTNRFTGVVESYTYEWYVDAWGQGLLVTVSS VL: EAVLNQPSSVSGSLGQRVSITCSGSSSNVGNGYVSWYQLIPGSAPRTLIYGDTSRASGVPDRFSGSRSGNTATLTISSLQAEDEADYFCASAEDSSSNAVFGSGTTLTVL | 10.1 | 0.0033 | 96
2 | 60D01 IgG (antibody, synthetic bovine IGHV1-7 (VHBUL) scaffold, FR1 to FR3; ultralong CDR-H3 (stalk and knob) of clone 60D01 from immunised cattle; FR4 of the synthetic VH domain; human IgG1 heavy chain constant regions; as the light chain of m3: bovine VL (V30, VLλ30) deduced from PDB entries that share a CDR-identical light chain; human constant lambda region (CLλ); chimeric IgG1; also called chimeric bovine × …) VH: QVQLRESGPSLVKPSQTLSLTCTASGFSLSDKAVGWVRQAPGKALEWLGGIDTGGSTGYNPGLKSRLSITKDNSKSQVSLSVSSVTTEDSATYYCTTVHQETTKTASCPDGYAEHFGRGWGYWGCGGCDCCQENGAGGGWGNCGLYSTSYTYEHHIDAWGQGLLVTVSS VL: EAVLNQPSSVSGSLGQRVSITCSGSSSNVGNGYVSWYQLIPGSAPRTLIYGDTSRASGVPDRFSGSRSGNTATLTISSLQAEDEADYFCASAEDSSSNAVFGSGTTLTVL | 1.3 | 0.606 | 76.3
3 | 60C08 IgG (antibody, synthetic bovine IGHV1-7 (VHBUL) scaffold, FR1 to FR3; ultralong CDR-H3 (stalk and knob) of clone 60C08 from immunised cattle; FR4 of the synthetic VH domain; human IgG1 heavy chain constant regions; as the light chain of m3: bovine VL (V30, VLλ30) deduced from PDB entries that share a CDR-identical light chain; human constant lambda region (CLλ); chimeric IgG1; also called chimeric bovine × …) VH: QVQLRESGPSLVKPSQTLSLTCTASGFSLSDKAVGWVRQAPGKALEWLGGIDTGGSTGYNPGLKSRLSITKDNSKSQVSLSVSSVTTEDSATYYCTTVHQKTIETTQKTCPDGYFYADTCWAYSCRCRDCDCCRSSGGCTYSRDSHTATYEWHVDAWGQGLLVTVSS VL: EAVLNQPSSVSGSLGQRVSITCSGSSSNVGNGYVSWYQLIPGSAPRTLIYGDTSRASGVPDRFSGSRSGNTATLTISSLQAEDEADYFCASAEDSSSNAVFGSGTTLTVL | 0.9 | 0.0587 | 92.1
4 | 60H05 IgG (antibody, synthetic bovine IGHV1-7 (VHBUL) scaffold, FR1 to FR3; ultralong CDR-H3 (stalk and knob) of clone 60H05 from immunised cattle; FR4 of the synthetic VH domain; human IgG1 heavy chain constant regions; as the light chain of m3: bovine VL (V30, VLλ30) deduced from PDB entries that share a CDR-identical light chain; human constant lambda region (CLλ); chimeric IgG1; also called chimeric bovine × …) VH: QVQLRESGPSLVKPSQTLSLTCTASGFSLSDKAVGWVRQAPGKALEWLGGIDTGGSTGYNPGLKSRLSITKDNSKSQVSLSVSSVTTEDSATYYCTTVHQKTNKLKSCPDGYTSGVECRFRGYTCANDGCWRVCSFTTCSGWMPASDTYRYEYHVDAWGQGLLVTVSS VL: EAVLNQPSSVSGSLGQRVSITCSGSSSNVGNGYVSWYQLIPGSAPRTLIYGDTSRASGVPDRFSGSRSGNTATLTISSLQAEDEADYFCASAEDSSSNAVFGSGTTLTVL | 2.6 | 0.0164 | 105

Now from value to binder, other results behind:

Row | EC50 [2] [nM] | Binder | ADCC EC50 killing: NK cell-mediated lysis of EGFR-overexpressing A431 cells, E:T 5:1 [1] [nM] | ADCC mean max killing of A431 cells (normalized to Cetuximab) [1] [%]
5 | 3 | 60C03 IgG (antibody, synthetic bovine IGHV1-7 (VHBUL) scaffold, FR1 to FR3; ultralong CDR-H3 (stalk and knob) of clone 60C03 from immunised cattle; FR4 of the synthetic VH domain; human IgG1 heavy chain constant regions; bovine VL (V30, VLλ30) deduced from PDB entries that share a CDR-identical light chain; human constant lambda region (CLλ); chimeric IgG1; all clones share one fixed light chain and VH scaffold and …) VH: QVQLRESGPSLVKPSQTLSLTCTASGFSLSDKAVGWVRQAPGKALEWLGGIDTGGSTGYNPGLKSRLSITKDNSKSQVSLSVSSVTTEDSATYYCTTVHQETKKENSCPDGYTSGVECRFRGYTCANDGCWRVCSFTTCSGWMPASDTYRYEYHVDAWGQGLLVTVSS VL: EAVLNQPSSVSGSLGQRVSITCSGSSSNVGNGYVSWYQLIPGSAPRTLIYGDTSRASGVPDRFSGSRSGNTATLTISSLQAEDEADYFCASAEDSSSNAVFGSGTTLTVL | 0.0265 | 103
6 | 3 | 60F06 IgG (antibody, synthetic bovine IGHV1-7 (VHBUL) scaffold, FR1 to FR3; ultralong CDR-H3 (stalk and knob) of clone 60F06 from immunised cattle; FR4 of the synthetic VH domain; human IgG1 heavy chain constant regions; as the light chain of m3: bovine VL (V30, VLλ30) deduced from PDB entries that share a CDR-identical light chain; human constant lambda region (CLλ); chimeric IgG1; also called chimeric bovine × …) VH: QVQLRESGPSLVKPSQTLSLTCTASGFSLSDKAVGWVRQAPGKALEWLGGIDTGGSTGYNPGLKSRLSITKDNSKSQVSLSVSSVTTEDSATYYCTTVHQRTEKIAKCPDGYSDARHCRDGCDCFGWDCFRSGAWAECYYEVYTYVHTYEHHVDAWGQGLLVTVSS VL: EAVLNQPSSVSGSLGQRVSITCSGSSSNVGNGYVSWYQLIPGSAPRTLIYGDTSRASGVPDRFSGSRSGNTATLTISSLQAEDEADYFCASAEDSSSNAVFGSGTTLTVL | 0.0048 | 108

Source: PMC8573386 (Frontiers in Immunology, 2021)
